According to PMC5371648:

Target: modern EF-Tu (elongation factor Tu) from E. coli (E. coli) (UniProt P0CE47)
Assay: ITC; Microcal ITC200; 0.6-1 mM NusA in the syringe titrated (2.5 uL injections, 120-s intervals) into 10 uM EF-Tu in the cell; Buffer C (20 mM Tris-HCl pH 7.5, 50 mM MgCl2, 100 mM KCl)

Kd: 14.6 µM
Substance: wild-type NusA protein from E. coli (from UniProt P0AFF6 1-495) (natural protein)
